From patent US20130337438A1 (JAPAN HEALTH SCIENCES FOUNDATION, published 2013)

B1: monoclonal antibody 13B (antibody, V domains shown)
VH: DVQLQESGPGLVKPSQSLSLSCTVTGYSITSDSAWNWIRQFPGNKLEWMGYITFSGSTNYNPSLKSRLSITRDTSKNQFFLQLNSVTTEDTATYYCTGPFLDYWGQGTTLTVSS
VL: DVVMTQTPLSLPVSLGDQATISCRSSLSLVLSNRITYLQWYLQKPGQSPKLLIYKVSNRFSGVPDRFSGSGSGTDFTLKISRVEAEDLGVYFCSQSSHFPWTFGGGTKLEIKR
notes: Used as mouse ascites or as antibody purified from ascites; also called Mouse-Mouse hybridoma 13B (FERM BP-11304)
B2: monoclonal antibody 24B (antibody, V domains shown)
VH: EVQLQQSGTVLARPGASVKMSCKASVYSFPSNWMHWVKQRPGQGLEWIGAIYPGTGATRYNQKFKDKAKLTAVTSADTAYMELSSLTDEDSAVYYCTGYSLYWGQGTILTVSS
VL: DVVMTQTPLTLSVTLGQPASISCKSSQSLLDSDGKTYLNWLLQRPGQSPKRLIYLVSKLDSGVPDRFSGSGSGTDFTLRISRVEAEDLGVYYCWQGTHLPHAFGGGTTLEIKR
notes: Used as mouse ascites or as antibody purified from ascites; also called Mouse-Mouse hybridoma 24B (FERM BP-11305)

How the values were obtained:
[1] = biological target: T1, HPV51 L1/L2-capsid (human papillomavirus type 51, UniProt P26539 1-468; P26536 1-504); assay: ELISA on immobilized L1/L2-capsid, purified antibody 250 ng/well
T1 construct: Capsid of co-expressed L1 and L2 from 293FT cells; The pseudovirus is the same capsid with a reporter plasmid; also called L1/L2-capsid of type 51; HPV51 pseudovirus
T1 sequence 1: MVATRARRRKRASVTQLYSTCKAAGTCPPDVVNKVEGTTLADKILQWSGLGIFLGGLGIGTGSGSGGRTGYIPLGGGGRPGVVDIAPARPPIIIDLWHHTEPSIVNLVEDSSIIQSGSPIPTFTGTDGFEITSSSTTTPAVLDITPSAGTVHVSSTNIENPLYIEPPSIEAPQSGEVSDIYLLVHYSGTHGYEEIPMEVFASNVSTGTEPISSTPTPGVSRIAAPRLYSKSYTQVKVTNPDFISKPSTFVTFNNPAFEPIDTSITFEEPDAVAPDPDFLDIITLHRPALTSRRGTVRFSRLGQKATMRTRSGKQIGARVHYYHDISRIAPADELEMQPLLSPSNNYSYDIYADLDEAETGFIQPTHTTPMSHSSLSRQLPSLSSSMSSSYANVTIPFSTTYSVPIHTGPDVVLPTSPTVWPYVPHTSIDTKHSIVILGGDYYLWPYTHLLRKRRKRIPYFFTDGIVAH
T1 sequence 2: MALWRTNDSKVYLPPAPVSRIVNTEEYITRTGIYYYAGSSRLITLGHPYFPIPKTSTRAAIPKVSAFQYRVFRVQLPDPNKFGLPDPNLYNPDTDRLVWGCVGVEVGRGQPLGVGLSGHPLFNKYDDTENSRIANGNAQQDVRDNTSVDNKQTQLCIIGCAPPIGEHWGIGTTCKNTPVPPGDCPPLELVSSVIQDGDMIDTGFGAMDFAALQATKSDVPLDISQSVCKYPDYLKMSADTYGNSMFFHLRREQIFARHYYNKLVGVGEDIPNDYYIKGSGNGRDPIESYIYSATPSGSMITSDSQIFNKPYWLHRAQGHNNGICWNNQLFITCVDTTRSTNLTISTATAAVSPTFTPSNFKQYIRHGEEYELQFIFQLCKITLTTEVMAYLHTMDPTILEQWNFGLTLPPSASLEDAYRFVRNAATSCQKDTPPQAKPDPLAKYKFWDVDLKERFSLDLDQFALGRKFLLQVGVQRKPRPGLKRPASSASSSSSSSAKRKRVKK

[2] = biological target: T2, HPV35 L1/L2-capsid (human papillomavirus type 35, UniProt P27234 1-469; P27232 1-502); assay: ELISA on immobilized L1/L2-capsid, ascites 1:100
T2 construct: Capsid of co-expressed L1 and L2 from 293FT cells; The pseudovirus is the same capsid with a reporter plasmid; also called L1/L2-capsid of type 35; HPV35 pseudovirus
T2 sequence 1: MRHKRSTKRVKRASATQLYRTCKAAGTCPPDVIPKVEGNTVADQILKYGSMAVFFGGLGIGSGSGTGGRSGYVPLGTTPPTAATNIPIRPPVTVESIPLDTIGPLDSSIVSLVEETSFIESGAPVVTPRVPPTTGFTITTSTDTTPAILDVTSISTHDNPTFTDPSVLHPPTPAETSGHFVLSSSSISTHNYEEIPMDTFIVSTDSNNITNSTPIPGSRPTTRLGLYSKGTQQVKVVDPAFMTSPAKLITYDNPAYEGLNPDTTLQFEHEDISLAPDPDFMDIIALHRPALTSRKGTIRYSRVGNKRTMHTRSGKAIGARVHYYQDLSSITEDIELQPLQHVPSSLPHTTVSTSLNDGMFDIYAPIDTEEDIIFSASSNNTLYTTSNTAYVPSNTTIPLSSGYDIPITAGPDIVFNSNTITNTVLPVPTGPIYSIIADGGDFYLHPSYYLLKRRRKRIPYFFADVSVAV
T2 sequence 2: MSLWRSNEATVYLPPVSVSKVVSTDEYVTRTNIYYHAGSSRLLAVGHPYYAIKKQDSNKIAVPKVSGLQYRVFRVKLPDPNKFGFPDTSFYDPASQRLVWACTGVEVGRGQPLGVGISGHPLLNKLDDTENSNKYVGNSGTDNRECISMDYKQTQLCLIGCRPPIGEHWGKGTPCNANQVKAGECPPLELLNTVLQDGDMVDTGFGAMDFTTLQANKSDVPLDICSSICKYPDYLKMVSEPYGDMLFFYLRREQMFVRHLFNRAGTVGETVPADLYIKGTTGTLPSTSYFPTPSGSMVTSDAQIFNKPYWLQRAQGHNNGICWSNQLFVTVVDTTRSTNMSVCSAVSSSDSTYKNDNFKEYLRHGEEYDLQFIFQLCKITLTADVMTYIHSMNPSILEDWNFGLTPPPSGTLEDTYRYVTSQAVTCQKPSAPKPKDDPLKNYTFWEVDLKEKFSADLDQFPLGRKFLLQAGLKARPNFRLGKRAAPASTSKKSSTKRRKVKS

[3] = biological target: T1, HPV51 L1/L2-capsid; assay: ELISA on immobilized L1/L2-capsid, ascites 1:100

| Binder | binding result [1] | binding result [2] | binding result [3] |
| --- | --- | --- | --- |
| B1 | binds |  |  |
| B2 |  | binds | binds |
